Laboratory results as given in paper PMC2603141 (Virology, 2008).

Biological target: the molecule itself
Test: reducing and non-reducing SDS-PAGE

B1: PIV 5 HN stalk region, HN(stalk) (domain or fragment)
chain: SPSSGLGSITDLLNNILSVANQIIYNSAVALPLQLDTLESTLLTAIKSLQTSDKLEQNCSWSAAL
modifications: also: inter-chain disulfide, covalent dimer
- stoichiometry N: 2
